For assay [1], the target named is T1, human tissue factor pathway inhibitor (TFPI) (human, UniProt P10646 29-304, limits assumed).
T1 construct: bought; also called hTFPI; human TFPI
T1 sequence (looked up): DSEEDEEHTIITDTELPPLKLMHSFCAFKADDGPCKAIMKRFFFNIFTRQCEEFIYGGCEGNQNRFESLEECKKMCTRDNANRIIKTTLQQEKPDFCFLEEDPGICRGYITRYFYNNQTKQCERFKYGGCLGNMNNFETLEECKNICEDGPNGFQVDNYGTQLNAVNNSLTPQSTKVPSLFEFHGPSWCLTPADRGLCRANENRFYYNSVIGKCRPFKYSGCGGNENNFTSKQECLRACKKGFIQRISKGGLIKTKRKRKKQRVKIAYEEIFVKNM
As to the kind of experiment: competitive ELISA. (In an ELISA, binding on a coated surface is turned into a signal by an enzyme label.)

Assay [2] concerns the target T2, mouse tissue factor pathway inhibitor (TFPI) (mouse, UniProt O54819 29-289, limits assumed).
T2 construct: bought; also called mTFPI; murine TFPI
T2 sequence (looked up): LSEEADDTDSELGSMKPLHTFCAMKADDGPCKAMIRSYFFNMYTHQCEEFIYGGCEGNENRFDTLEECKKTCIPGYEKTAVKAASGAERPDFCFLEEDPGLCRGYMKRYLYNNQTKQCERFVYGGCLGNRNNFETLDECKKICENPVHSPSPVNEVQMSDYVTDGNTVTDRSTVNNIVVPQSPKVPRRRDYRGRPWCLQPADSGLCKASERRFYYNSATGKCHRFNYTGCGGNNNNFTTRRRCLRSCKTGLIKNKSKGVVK
The assay can be described thus: competitive ELISA.

B1: 2A8 HC S31V+S35D/LC Y48F+N51V (Fab, V domains shown)
VH: QVQLVESGGGLVQPGGSLRLSCAASGFTFRVYGMDWVRQAPGKGLEWVSSIRGSSSSTYYADSVKGRFTISRDNSKNTLYLQMNSLRAEDTAVYYCARKYRYWFDYWGQGTLVTVSS
VL: DIELTQPPSVSVAPGQTARISCSGDNLRNYYAHWYQQKPGQAPVVVIFYDVNRPSGIPERFSGSNSGNTATLTISGTQAEDEADYYCQSWDDGVPVFGGGTKLTVLG
As for B1, the variant/HC_K99L in assay [1] stood at 7.5 ratio; in assay [2] it was 7.2 ratio.

B2: 2A8 HC S35D+I51D+S55R+K99V/LC Y48F+N51V (Fab, V domains shown)
VH: QVQLVESGGGLVQPGGSLRLSCAASGFTFRSYGMDWVRQAPGKGLEWVSSDRGSRSSTYYADSVKGRFTISRDNSKNTLYLQMNSLRAEDTAVYYCARVYRYWFDYWGQGTLVTVSS
VL: DIELTQPPSVSVAPGQTARISCSGDNLRNYYAHWYQQKPGQAPVVVIFYDVNRPSGIPERFSGSNSGNTATLTISGTQAEDEADYYCQSWDDGVPVFGGGTKLTVLG
For the molecule B2, the variant/HC_K99L in assay [1] came out at 8 ratio; in assay [2] it was 2.7 ratio.

B3: 2A8 HC S35D+K99L/LC Y48F+D91L+D92S+V96W (Fab, V domains shown)
VH: QVQLVESGGGLVQPGGSLRLSCAASGFTFRSYGMDWVRQAPGKGLEWVSSIRGSSSSTYYADSVKGRFTISRDNSKNTLYLQMNSLRAEDTAVYYCARLYRYWFDYWGQGTLVTVSS
VL: DIELTQPPSVSVAPGQTARISCSGDNLRNYYAHWYQQKPGQAPVVVIFYDNNRPSGIPERFSGSNSGNTATLTISGTQAEDEADYYCQSWLSGVPWFGGGTKLTVLG
On to B3, for which the variant/HC_K99L in assay [1] was determined as 20.7 ratio; in assay [2], 20.5 ratio.

B4: 2A8 HC S35D+K99L/LC D91L+V96W (Fab, V domains shown)
VH: QVQLVESGGGLVQPGGSLRLSCAASGFTFRSYGMDWVRQAPGKGLEWVSSIRGSSSSTYYADSVKGRFTISRDNSKNTLYLQMNSLRAEDTAVYYCARLYRYWFDYWGQGTLVTVSS
VL: DIELTQPPSVSVAPGQTARISCSGDNLRNYYAHWYQQKPGQAPVVVIYYDNNRPSGIPERFSGSNSGNTATLTISGTQAEDEADYYCQSWLDGVPWFGGGTKLTVLG
Consider B4, for which the results for the variant/HC_K99L in assay [1] and in assay [2] were 7.1 ratio and 5.4 ratio, respectively.

B5: 2A8 HC S35D+I51D+K99L/LC Y48F+D91W (Fab, V domains shown)
VH: QVQLVESGGGLVQPGGSLRLSCAASGFTFRSYGMDWVRQAPGKGLEWVSSDRGSSSSTYYADSVKGRFTISRDNSKNTLYLQMNSLRAEDTAVYYCARLYRYWFDYWGQGTLVTVSS
VL: DIELTQPPSVSVAPGQTARISCSGDNLRNYYAHWYQQKPGQAPVVVIFYDNNRPSGIPERFSGSNSGNTATLTISGTQAEDEADYYCQSWWDGVPVFGGGTKLTVLG
As to B5, the variant/HC_K99L was determined as 0.8 ratio in assay [1] and 0.2 ratio in assay [2].

B6: 2A8 HC S35D+K99L/LC Y48F+D91L+P95V+V96W (Fab, V domains shown)
VH: QVQLVESGGGLVQPGGSLRLSCAASGFTFRSYGMDWVRQAPGKGLEWVSSIRGSSSSTYYADSVKGRFTISRDNSKNTLYLQMNSLRAEDTAVYYCARLYRYWFDYWGQGTLVTVSS
VL: DIELTQPPSVSVAPGQTARISCSGDNLRNYYAHWYQQKPGQAPVVVIFYDNNRPSGIPERFSGSNSGNTATLTISGTQAEDEADYYCQSWLDGVVWFGGGTKLTVLG
With B6, the variant/HC_K99L worked out at 10.2 ratio in assay [1] and 13.6 ratio in assay [2].

B7: 2A8 HC S31V+S54F+K99L/LC N51V (Fab, V domains shown)
VH: QVQLVESGGGLVQPGGSLRLSCAASGFTFRVYGMSWVRQAPGKGLEWVSSIRGFSSSTYYADSVKGRFTISRDNSKNTLYLQMNSLRAEDTAVYYCARLYRYWFDYWGQGTLVTVSS
VL: DIELTQPPSVSVAPGQTARISCSGDNLRNYYAHWYQQKPGQAPVVVIYYDVNRPSGIPERFSGSNSGNTATLTISGTQAEDEADYYCQSWDDGVPVFGGGTKLTVLG
Consider B7, for which the variant/HC_K99L in assay [1] was found to be 16.3 ratio; in assay [2] it was 15.7 ratio.

B8: 2A8 HC S31V+S35L+I51D+S54F+K99V/LC N51V+D91K (Fab, V domains shown)
VH: QVQLVESGGGLVQPGGSLRLSCAASGFTFRVYGMLWVRQAPGKGLEWVSSDRGFSSSTYYADSVKGRFTISRDNSKNTLYLQMNSLRAEDTAVYYCARVYRYWFDYWGQGTLVTVSS
VL: DIELTQPPSVSVAPGQTARISCSGDNLRNYYAHWYQQKPGQAPVVVIYYDVNRPSGIPERFSGSNSGNTATLTISGTQAEDEADYYCQSWKDGVPVFGGGTKLTVLG
Consider B8, for which the variant/HC_K99L in assay [1] amounted to 8.6 ratio; in assay [2], 8.2 ratio.

B9: 2A8 HC S35D+K99L/LC Y48F+S89A+D91L+V96W (Fab, V domains shown)
VH: QVQLVESGGGLVQPGGSLRLSCAASGFTFRSYGMDWVRQAPGKGLEWVSSIRGSSSSTYYADSVKGRFTISRDNSKNTLYLQMNSLRAEDTAVYYCARLYRYWFDYWGQGTLVTVSS
VL: DIELTQPPSVSVAPGQTARISCSGDNLRNYYAHWYQQKPGQAPVVVIFYDNNRPSGIPERFSGSNSGNTATLTISGTQAEDEADYYCQAWLDGVPWFGGGTKLTVLG
Take B9: the variant/HC_K99L in assay [1] came out at 4.4 ratio; in assay [2], 6.1 ratio.

B10: 2A8 HC S35D+I51E+S55R+K99L/LC Y48F+N51V+D91L+V96W (Fab, V domains shown)
VH: QVQLVESGGGLVQPGGSLRLSCAASGFTFRSYGMDWVRQAPGKGLEWVSSERGSRSSTYYADSVKGRFTISRDNSKNTLYLQMNSLRAEDTAVYYCARLYRYWFDYWGQGTLVTVSS
VL: DIELTQPPSVSVAPGQTARISCSGDNLRNYYAHWYQQKPGQAPVVVIFYDVNRPSGIPERFSGSNSGNTATLTISGTQAEDEADYYCQSWLDGVPWFGGGTKLTVLG
In the case of B10, the variant/HC_K99L is 10.4 ratio in assay [1] and 8 ratio in assay [2].

B11: 2A8 HC S35D+K99L/LC Y48F+N51S+D91L+V96W (Fab, V domains shown)
VH: QVQLVESGGGLVQPGGSLRLSCAASGFTFRSYGMDWVRQAPGKGLEWVSSIRGSSSSTYYADSVKGRFTISRDNSKNTLYLQMNSLRAEDTAVYYCARLYRYWFDYWGQGTLVTVSS
VL: DIELTQPPSVSVAPGQTARISCSGDNLRNYYAHWYQQKPGQAPVVVIFYDSNRPSGIPERFSGSNSGNTATLTISGTQAEDEADYYCQSWLDGVPWFGGGTKLTVLG
Take B11: the variant/HC_K99L in assay [1] is 19.9 ratio; in assay [2], 20.3 ratio.

B12: 2A8 HC S35D+K99L/LC unchanged (Fab, V domains shown)
VH: QVQLVESGGGLVQPGGSLRLSCAASGFTFRSYGMDWVRQAPGKGLEWVSSIRGSSSSTYYADSVKGRFTISRDNSKNTLYLQMNSLRAEDTAVYYCARLYRYWFDYWGQGTLVTVSS
VL: DIELTQPPSVSVAPGQTARISCSGDNLRNYYAHWYQQKPGQAPVVVIYYDNNRPSGIPERFSGSNSGNTATLTISGTQAEDEADYYCQSWDDGVPVFGGGTKLTVLG
On to B12, for which the variant/HC_K99L in assay [1] was 3.9 ratio; in assay [2], 4.5 ratio.

B13: 2A8 HC S31V+S50A+I51D+S55R+K99V/LC Y48F+D91L+V96W (Fab, V domains shown)
VH: QVQLVESGGGLVQPGGSLRLSCAASGFTFRVYGMSWVRQAPGKGLEWVSADRGSRSSTYYADSVKGRFTISRDNSKNTLYLQMNSLRAEDTAVYYCARVYRYWFDYWGQGTLVTVSS
VL: DIELTQPPSVSVAPGQTARISCSGDNLRNYYAHWYQQKPGQAPVVVIFYDNNRPSGIPERFSGSNSGNTATLTISGTQAEDEADYYCQSWLDGVPWFGGGTKLTVLG
Turning to B13, the variant/HC_K99L in assay [1] turned out to be 16.6 ratio; in assay [2], 9.3 ratio.

B14: 2A8 HC S35D+R52S+S55R+K99L/LC Y48F+N51V+D91W (Fab, V domains shown)
VH: QVQLVESGGGLVQPGGSLRLSCAASGFTFRSYGMDWVRQAPGKGLEWVSSISGSRSSTYYADSVKGRFTISRDNSKNTLYLQMNSLRAEDTAVYYCARLYRYWFDYWGQGTLVTVSS
VL: DIELTQPPSVSVAPGQTARISCSGDNLRNYYAHWYQQKPGQAPVVVIFYDVNRPSGIPERFSGSNSGNTATLTISGTQAEDEADYYCQSWWDGVPVFGGGTKLTVLG
As for B14, the variant/HC_K99L in assay [1] was determined as 10.1 ratio; in assay [2], 7.9 ratio.

B15: 2A8 HC S35D+K99L/LC Y48F+D91L+G93S+V96W (Fab, V domains shown)
VH: QVQLVESGGGLVQPGGSLRLSCAASGFTFRSYGMDWVRQAPGKGLEWVSSIRGSSSSTYYADSVKGRFTISRDNSKNTLYLQMNSLRAEDTAVYYCARLYRYWFDYWGQGTLVTVSS
VL: DIELTQPPSVSVAPGQTARISCSGDNLRNYYAHWYQQKPGQAPVVVIFYDNNRPSGIPERFSGSNSGNTATLTISGTQAEDEADYYCQSWLDSVPWFGGGTKLTVLG
In the case of B15, the results for the variant/HC_K99L in assay [1] and in assay [2] were 14.2 ratio and 15.6 ratio, respectively.

B16: 2A8 HC S35D+K99L/LC Y48F+D91L+V94T+V96W (Fab, V domains shown)
VH: QVQLVESGGGLVQPGGSLRLSCAASGFTFRSYGMDWVRQAPGKGLEWVSSIRGSSSSTYYADSVKGRFTISRDNSKNTLYLQMNSLRAEDTAVYYCARLYRYWFDYWGQGTLVTVSS
VL: DIELTQPPSVSVAPGQTARISCSGDNLRNYYAHWYQQKPGQAPVVVIFYDNNRPSGIPERFSGSNSGNTATLTISGTQAEDEADYYCQSWLDGTPWFGGGTKLTVLG
As to B16, the variant/HC_K99L in assay [1] was 18.6 ratio; in assay [2], 19.3 ratio.

B17: 2A8 HC S35D+R52S+K99L/LC Y48F+D91L+V96W (Fab, V domains shown)
VH: QVQLVESGGGLVQPGGSLRLSCAASGFTFRSYGMDWVRQAPGKGLEWVSSISGSSSSTYYADSVKGRFTISRDNSKNTLYLQMNSLRAEDTAVYYCARLYRYWFDYWGQGTLVTVSS
VL: DIELTQPPSVSVAPGQTARISCSGDNLRNYYAHWYQQKPGQAPVVVIFYDNNRPSGIPERFSGSNSGNTATLTISGTQAEDEADYYCQSWLDGVPWFGGGTKLTVLG
As for B17, the results for the variant/HC_K99L in assay [1] and in assay [2] were 3.9 ratio and 3 ratio, respectively.

B18: 2A8 HC S31V+S35L+I51E+S54F+K99V/LC N51V+D91K (Fab, V domains shown)
VH: QVQLVESGGGLVQPGGSLRLSCAASGFTFRVYGMLWVRQAPGKGLEWVSSERGFSSSTYYADSVKGRFTISRDNSKNTLYLQMNSLRAEDTAVYYCARVYRYWFDYWGQGTLVTVSS
VL: DIELTQPPSVSVAPGQTARISCSGDNLRNYYAHWYQQKPGQAPVVVIYYDVNRPSGIPERFSGSNSGNTATLTISGTQAEDEADYYCQSWKDGVPVFGGGTKLTVLG
For B18, the variant/HC_K99L turned out to be 4.9 ratio in assay [1] and 3.9 ratio in assay [2].
